Paper PMC10979912
Values belong to the substance of their own block, whether it stands above or below them.

Target: Tau (2N4R Tau; Tau(291–391)) 2-441 (UniProt P10636)
Test: solid-phase ELISA, immobilised fragment, soluble Tau
Settings: reference: unmodified (WT) Tau(291–391)

- binding against the reference (sites S356): weaker
Substance: Tau (2N4R Tau; Tau(291–391)) 291-391 (from UniProt P10636-8) pS356 Tau(291–391)

- binding against the reference (sites S352): weaker
Substance: Tau (2N4R Tau; Tau(291–391)) 291-391 (from UniProt P10636-8) pS352 Tau(291–391)

- binding against the reference (sites S305): weaker
Substance: Tau (2N4R Tau; Tau(291–391)) 291-391 (from UniProt P10636-8) pS305 Tau(291–391)
